According to the supplement of paper PMC9428881:
± gives the standard error.

Test: background-corrected fluorescence of 3'-dye-labeled ssDNA relative to brightest sequence (3'-GCGCG) (fraction); higher = brighter dye fluorescence (less quenching)
Method in brief: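 Arrays of single-stranded DNA, with a 3' Cy3 or Cy5 dye beside each of 1024 permuted pentamers, were built on glass slides through light-directed phosphoramidite synthesis. They were washed for 2 h at r.t. in acetonitrile and scanned at 532 or 635 nm, once before and once after overnight ethylenediamine/ethanol deprotection. Fluorescence is reported after subtracting unlabeled-oligo background and normalizing to the brightest sequence. Averages cover 10 features per array and at least 3 syntheses.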

Sequence | background-corrected fluorescence (dye: Cy3 (3' terminal)) | background-corrected fluorescence (dye: Cy5 (3' terminal))
TTTTTTCATCATGATGAGCATTTTTTTTTTTTTTTGGCCT [TCCGG] | 0.4958 ± 0.0048 | 0.386 ± 0.035
TTTTTTCATGATGATGATGATTTTTTTTTTTTTTTGCCCC [CCCCG] | 0.32 ± 0.038 | 0.272 ± 0.012
TTTTTGCATCAGCATGCGCATTTTTTTTTTTTTTTTGTAT [TATGT] | 0.53 ± 0.024 | 0.418 ± 0.031
TTTTTGCATCATGATCATCATTTTTTTTTTTTTTTTGCGG [GGCGT] | 0.603 ± 0.016 | 0.543 ± 0.032
TTTTTTGCTGATGCTCAGCATTTTTTTTTTTTTTTACAGT [TGACA] | 0.629 ± 0.039 | 0.474 ± 0.03
TTTTTTGATGAGCATGATCATTTTTTTTTTTTTTTCCTCG [GCTCC] | 0.471 ± 0.02 | 0.393 ± 0.057
TTTTTTGATGCTCATGAGCATTTTTTTTTTTTTTTCAGCT [TCGAC] | 0.543 ± 0.022 | 0.418 ± 0.022
TTTTTTCATCATGATGCGCATTTTTTTTTTTTTTTGGCAT [TACGG] | 0.603 ± 0.011 | 0.406 ± 0.025
TTTTTTGATGCGCATGATGCTTTTTTTTTTTTTTTCATCA [ACTAC] | 0.483 ± 0.034 | 0.372 ± 0.026
TTTTTTCATCATCATGCTGATTTTTTTTTTTTTTTGGGAC [CAGGG] | 0.536 ± 0.029 | 0.401 ± 0.025
TTTTTTGATGCTGATCAGCATTTTTTTTTTTTTTTCACGT [TGCAC] | 0.588 ± 0.034 | 0.473 ± 0.03
TTTTTTCATGCTCATCAGCATTTTTTTTTTTTTTTGAGGT [TGGAG] | 0.708 ± 0.038 | 0.56 ± 0.05
TTTTTTGAGCATGATCATGCTTTTTTTTTTTTTTTCTCGA [AGCTC] | 0.599 ± 0.011 | 0.49 ± 0.03
TTTTTTGCTGATCATGATCATTTTTTTTTTTTTTTACGCG [GCGCA] | 0.973 ± 0.017 | 0.876 ± 0.027
TTTTTGCATGATGATCATGCTTTTTTTTTTTTTTTTCCGA [AGCCT] | 0.581 ± 0.026 | 0.552 ± 0.031
TTTTTTGCTCATGATCATGATTTTTTTTTTTTTTTAGCGC [CGCGA] | 0.65 ± 0.023 | 0.523 ± 0.038
TTTTTTGCGCAGCATGCTGATTTTTTTTTTTTTTTATTAC [CATTA] | 0.405 ± 0.022 | 0.334 ± 0.032
TTTTTTCATGCTGAGCAGCATTTTTTTTTTTTTTTGACTT [TTCAG] | 0.501 ± 0.016 | 0.401 ± 0.021
TTTTTTGCTGATCATCAGCATTTTTTTTTTTTTTTACGGT [TGGCA] | 0.664 ± 0.018 | 0.565 ± 0.045
TTTTTTGCTGCTGCTGCGCATTTTTTTTTTTTTTTAAAAT | 0.596 ± 0.022 | 0.462 ± 0.077
TTTTTTCATGAGCATGCTCATTTTTTTTTTTTTTTGCTAG [GATCG] | 0.57 ± 0.036 | 0.422 ± 0.053
TTTTTTGCGCATGCTCATCATTTTTTTTTTTTTTTATAGG [GGATA] | 0.628 ± 0.019 | 0.516 ± 0.03
TTTTTTGCTCATGCTCAGCATTTTTTTTTTTTTTTAGAGT [TGAGA] | 0.598 ± 0.017 | 0.503 ± 0.029

Sequence | background-corrected fluorescence (dye: Cy3 (3' terminal)) | background-corrected fluorescence (dye: Cy5 (3' terminal))
TTTTTGCATGATGATCAGCATTTTTTTTTTTTTTTTCCGT [TGCCT] | 0.613 ± 0.021 | 0.484 ± 0.027
TTTTTTGCGCATCATGATCATTTTTTTTTTTTTTTATGCG [GCGTA] | 0.587 ± 0.017 | 0.49 ± 0.035
TTTTTGCAGCAGCATCATCATTTTTTTTTTTTTTTTTTGG [GGTTT] | 0.612 ± 0.01 | 0.444 ± 0.027
TTTTTTGATCAGCAGCATCATTTTTTTTTTTTTTTCGTTG [GTTGC] | 0.533 ± 0.023 | 0.422 ± 0.051
TTTTTGCATCAGCATGCTGATTTTTTTTTTTTTTTTGTAC [CATGT] | 0.471 ± 0.041 | 0.344 ± 0.022
TTTTTTGCTCAGCAGCATGATTTTTTTTTTTTTTTAGTTC [CTTGA] | 0.433 ± 0.023 | 0.335 ± 0.025
TTTTTTGCTGCTCATCATGCTTTTTTTTTTTTTTTAAGGA [AGGAA] | 0.779 ± 0.02 | 0.635 ± 0.045
TTTTTTGCTGCGCATGCTCATTTTTTTTTTTTTTTAATAG [GATAA] | 0.535 ± 0.0083 | 0.408 ± 0.017
TTTTTTCATGCTGATGAGCATTTTTTTTTTTTTTTGACCT [TCCAG] | 0.453 ± 0.026 | 0.34 ± 0.026
TTTTTGCAGCAGCATGAGCATTTTTTTTTTTTTTTTTTCT [TCTTT] | 0.463 ± 0.024 | 0.321 ± 0.019
TTTTTTGCTCAGCATCATGCTTTTTTTTTTTTTTTAGTGA | 0.645 ± 0.022 | 0.536 ± 0.037
TTTTTTGATCATGAGCATCATTTTTTTTTTTTTTTCGCTG [GTCGC] | 0.534 ± 0.014 | 0.423 ± 0.043
TTTTTTCAGCAGCATGATGATTTTTTTTTTTTTTTGTTCC [CCTTG] | 0.351 ± 0.018 | 0.275 ± 0.015
TTTTTTCATGCGCATCAGCATTTTTTTTTTTTTTTGATGT [TGTAG] | 0.653 ± 0.025 | 0.478 ± 0.04
TTTTTGCAGCATCATGCTGCTTTTTTTTTTTTTTTTTGAA [AAGTT] | 0.634 ± 0.019 | 0.527 ± 0.03
TTTTTTGAGCATGAGCAGCATTTTTTTTTTTTTTTCTCTT | 0.49 ± 0.0076 | 0.334 ± 0.024
TTTTTTGATCATGATGATCATTTTTTTTTTTTTTTCGCCG [GCCGC] | 0.647 ± 0.017 | 0.506 ± 0.046
TTTTTTGCTGCTGAGCATGATTTTTTTTTTTTTTTAACTC [CTCAA] | 0.418 ± 0.028 | 0.293 ± 0.019
TTTTTTGCTCATCAGCAGCATTTTTTTTTTTTTTTAGGTT [TTGGA] | 0.584 ± 0.022 | 0.464 ± 0.08
TTTTTTCATGCTGAGCATCATTTTTTTTTTTTTTTGACTG [GTCAG] | 0.511 ± 0.03 | 0.39 ± 0.032
TTTTTTGCTGCGCATCATCATTTTTTTTTTTTTTTAATGG [GGTAA] | 0.645 ± 0.023 | 0.51 ± 0.048
TTTTTTCATCATGATCAGCATTTTTTTTTTTTTTTGGCGT [TGCGG] | 0.643 ± 0.035 | 0.558 ± 0.057
TTTTTTGCTGATGATGATCATTTTTTTTTTTTTTTACCCG [GCCCA] | 0.505 ± 0.03 | 0.411 ± 0.03

Sequence | background-corrected fluorescence (dye: Cy3 (3' terminal)) | background-corrected fluorescence (dye: Cy5 (3' terminal))
TTTTTTGCTGATGATCAGCATTTTTTTTTTTTTTTACCGT [TGCCA] | 0.624 ± 0.025 | 0.479 ± 0.034
TTTTTTCATGATCATGATCATTTTTTTTTTTTTTTGCGCG | 1 ± 0.024 | 1 ± 0.035
TTTTTTGAGCATGCTCATGCTTTTTTTTTTTTTTTCTAGA [AGATC] | 0.608 ± 0.035 | 0.529 ± 0.026
TTTTTGCATGCTCATGCTCATTTTTTTTTTTTTTTTAGAG [GAGAT] | 0.591 ± 0.014 | 0.477 ± 0.059
TTTTTGCATGCGCAGCATGCTTTTTTTTTTTTTTTTATTA [ATTAT] | 0.545 ± 0.017 | 0.409 ± 0.035
TTTTTTCATCATCATCATGCTTTTTTTTTTTTTTTGGGGA [AGGGG] | 0.753 ± 0.014 | 0.757 ± 0.038
TTTTTTGCTGATGAGCATCATTTTTTTTTTTTTTTACCTG [GTCCA] | 0.499 ± 0.023 | 0.384 ± 0.02
TTTTTTGCTCAGCATGCTGATTTTTTTTTTTTTTTAGTAC [CATGA] | 0.485 ± 0.006 | 0.371 ± 0.027
TTTTTGCATGCTCATCAGCATTTTTTTTTTTTTTTTAGGT [TGGAT] | 0.634 ± 0.019 | 0.543 ± 0.033
TTTTTTCATGATGAGCATGATTTTTTTTTTTTTTTGCCTC [CTCCG] | 0.354 ± 0.016 | 0.286 ± 0.06
TTTTTGCATGATCATGATGCTTTTTTTTTTTTTTTTCGCA [ACGCT] | 0.569 ± 0.035 | 0.434 ± 0.029
TTTTTGCATGCTGCTGCTGCTTTTTTTTTTTTTTTTAAAA [AAAAT] | 0.631 ± 0.013 | 0.52 ± 0.028
TTTTTTGATCAGCAGCAGCATTTTTTTTTTTTTTTCGTTT [TTTGC] | 0.528 ± 0.017 | 0.393 ± 0.026
TTTTTTGCGCATCATCAGCATTTTTTTTTTTTTTTATGGT [TGGTA] | 0.649 ± 0.027 | 0.561 ± 0.028
TTTTTTCATCATCAGCATGCTTTTTTTTTTTTTTTGGGTA [ATGGG] | 0.614 ± 0.0069 | 0.517 ± 0.03
TTTTTTCATGAGCAGCATCATTTTTTTTTTTTTTTGCTTG [GTTCG] | 0.465 ± 0.023 | 0.343 ± 0.021
TTTTTGCATGCGCATGCTGATTTTTTTTTTTTTTTTATAC [CATAT] | 0.449 ± 0.022 | 0.333 ± 0.035
TTTTTTGCTGAGCAGCATGCTTTTTTTTTTTTTTTACTTA [ATTCA] | 0.493 ± 0.06 | 0.379 ± 0.027
TTTTTTGATGCGCATGATGATTTTTTTTTTTTTTTCATCC [CCTAC] | 0.38 ± 0.02 | 0.273 ± 0.017
TTTTTTGATGCTGCTGAGCATTTTTTTTTTTTTTTCAACT | 0.53 ± 0.011 | 0.342 ± 0.018
TTTTTTGATCATGAGCAGCATTTTTTTTTTTTTTTCGCTT | 0.51 ± 0.017 | 0.409 ± 0.047
TTTTTGCATCATGAGCATGCTTTTTTTTTTTTTTTTGCTA [ATCGT] | 0.55 ± 0.032 | 0.399 ± 0.041
